Results taken from the nanobody polyreactivity screen of Harvey et al. (2022).

Test: yeast display, Sf9 membrane polyspecificity reagent, FACS + sequencing; frameworks hold sequencing errors
Outline: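 Sorting gates, low and high (top ~1%), were placed on anti-HA fluorescence to track expression and on streptavidin fluorescence to track reagent binding. A clone's polyreactivity label is taken from the gate it came out of. The reagent was 10% biotinylated, detergent-solubilized Sf9 membrane, applied for 1 hour at 4 °C to galactose-induced yeast display cells.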

Question: Which “polyreactivity (PSR sort gate)” value does the source give for “QVQLVESGGGLVQAGGSLRLSCAASGYTFKYYTMGWSRQAPGKERELVAAITGGGSTYYADSVKGRFTISRDNAKNTVYLQMNSLKPEDTAVYYCAATVLYGYHKAYDYWGQGTQVTVSS” here?
Answer: high polyreactivity

Question: With “QVQLVESGGGLVQAGGSLRLSCAASVSTFYGYAMGWYRQAPGKERELVAAITSTVITDYADSVKGRFTISRDNAKNTVYLQMNSLKPEDTAVYYCSADRYDSSQFYYWGQGTQVTVSS” as the sequence, how does the “polyreactivity (PSR sort gate)” value read?
Answer: low polyreactivity

Question: Which “polyreactivity (PSR sort gate)” value does the source give for “QVQLVESGGGLVQAGGSLRLSCAASGRTYVSYAMGWYRQAPGKERELVATITGSTGGTYYADSVKGRFTISRDHAKNTVYLQMNSLKPEDTAVYYCNKDYYYNPGNVASGYDYWGQGTQVTVSS” here?
Answer: low polyreactivity

Question: With “HVQLVESGGGLVQAGGSLRISCAASGRTLEQYAMGWYRQAPGKERELVAAINKSGARTYYADSVKGRFTISRDNAKNTVYLQMNSLKPEDTAVYYCNTVGPCYLFDYWGQGTQVTVSS” as the sequence, how does the “polyreactivity (PSR sort gate)” value read?
Answer: high polyreactivity

Question: With “QVQLVESGGGLVQAGGSLRLSCAASGNIFYINAMGWYRQAPGKERELVAAISSGGRTNYADSVKGRFTISRDNAKNTVYLQMNSLNPEDTEVYYCNADGWYAWRYYAPGGYDYWGQGTQVTVSS” as the sequence, how does the “polyreactivity (PSR sort gate)” value read?
Answer: low polyreactivity

Question: For “QVQLVESGGGLVQAGGSLRLSCAASGIIFPNYAMGWYRQAPGKERELVAAITTSGTSTYYADSVKGRFTISRDNAKNTVYLQMNSLKPEDTAVYYCAARPTGHWGGRYYYWGQGTQVTVSS”, which “polyreactivity (PSR sort gate)” value is on record?
Answer: high polyreactivity

Question: With “QVQLVESGGGLVQAGGSLRLSCAASGITFNRYALGWYRQAPGKERELVASIRWSGGSTNYADSVKGRFTISRDNGKNTVYLQMKSLKPEDTAVYYCNAGRESDDVYEGSQRIGQFDYWGQGTQVTVSS” as the sequence, how does the “polyreactivity (PSR sort gate)” value read?
Answer: low polyreactivity

Question: Which “polyreactivity (PSR sort gate)” value does the source give for “QVQLVESGGGLVQAGGSLRLSCAASGSIFGHNTMGWYRQPPGKERELVAAITWNGGRTYYADSVKGRFTISRDNAKNTVYLQMNSLKPEDTAVYYCNAVVKTYGYKAHRYPSSRLNYWGQGTQVTVSS” here?
Answer: high polyreactivity

Question: Which “polyreactivity (PSR sort gate)” value does the source give for “QVQLVESGGGFVQAGGSLRLSCAASGRICGYYAMGWFRQAPGKERELVAAISSSGGSTYYADSVKGRFTISRDTAKNTVYLQINSQKPEYTAVYYCNVDWYDNGYGGYDYWRQGTQVTVSS” here?
Answer: low polyreactivity

Question: For “QVQLVESGGGLVQAGGSLRLSCAASGSTFYGYTMGWYRRAPGKERELVAAITFRGGSTYYADSVKGRFTISRDNAKNTVYLQMNSLKPEDTAVYYCAAVGRYSRYPYSDTYGYWGQGTQVTVSS”, which “polyreactivity (PSR sort gate)” value is on record?
Answer: high polyreactivity

Question: With “QVQLVESGAGLVQAGGSLRLICAATGFTLGSNAMGSYRKAPGKERELVAAISKSGGSTYYADSVKGRFTISRDNAKNTVYLQMNSLKPDDTAVYYCAARYLYQGYRYDYWGQGTQVTVSS” as the sequence, how does the “polyreactivity (PSR sort gate)” value read?
Answer: high polyreactivity

Question: For “QVQLVESGGGVVQAGGSLRLSCAASGGTFGKYAMGWYRQAPGNEREFVAAISKSGGSTFYADSVKGRFTISRDNAKNTVYLQMNSLKPEDTAVYYCAVRWYYRGRSLYDYWGQGTQVTVSS”, which “polyreactivity (PSR sort gate)” value is on record?
Answer: high polyreactivity

Question: With “QVQLVESGGGLVQAGGSLRLSCAASGGTFWLYTMGWYRQAPGKERELVAAITKSGGSTYYADSVKGRFTISRDNAKNTVYLQMNSLKPEDTAVYYCAARYSVYRDGYYWGQGTQVTVSS” as the sequence, how does the “polyreactivity (PSR sort gate)” value read?
Answer: high polyreactivity

Question: With “QVQLVESGGGLVQAGGSLRLSCAASGIIFGSNAMGWYRQAPGKERELVAAISYSGASTYYADSVKGRFTISRDNAKNTVYLQMNSLKPEDTAVYYCATYSRWDYGYWGQGTQVTVSS” as the sequence, how does the “polyreactivity (PSR sort gate)” value read?
Answer: high polyreactivity

Question: Which “polyreactivity (PSR sort gate)” value does the source give for “QDQLVESGGGLVQAGGSLRLSCAASGSIFSTNAMGWYRQAPGKERELVAAITYSGSRTYYADSVKGRFTISRDTAKNTVFLQMNSLKPEDTAVYYCAADTSWYSWWFDYWGQGTQVTVSS” here?
Answer: low polyreactivity

Question: Which “polyreactivity (PSR sort gate)” value does the source give for “QVQLVESGGGLVQAGGSLRLSCAASGSIFVTYAMGWYRQAPGKERELVASITGRGGSTYYADSVKGRFTISRDNAKNTVYLQMNSLKPEDTAVYYCAARVASRHGWHNYWGQGTQVSVSS” here?
Answer: high polyreactivity

Question: With “QVQLVESCGGLVHAGGSLRLSCAASGRSFYRYAMGWYRKAPGKERELVAAISSGGSTYYADSVKGRFTISRDNANNTDYLQMNSLKPEDTAVYYCNADYGRRIHMDYWGQGTQVTVSS” as the sequence, how does the “polyreactivity (PSR sort gate)” value read?
Answer: low polyreactivity

Question: For “QDQLVESGGGLVQAGGSLRLSCAASGLTFYQYDMGWYRQAPGKERELVAAISRSGGRTYYADSVKGRFTISRDIAMITVYLQMNSLKPEDTAVYYCARPDKRLEYSENYYWGQGSQVTVSS”, which “polyreactivity (PSR sort gate)” value is on record?
Answer: high polyreactivity

Question: For “QVQLVESGGGLVQAGGSLRLSCAASGRIFYAYAMGWYRQAPGKERVFVAAISKRGGSTYYADSVKGRFTISRDNAKNTVYLQMNSRKPEDTAVYYCAADHEAIVRYDYWGQGTQVTVSS”, which “polyreactivity (PSR sort gate)” value is on record?
Answer: low polyreactivity

Question: Which “polyreactivity (PSR sort gate)” value does the source give for “QVQLVESGGGLVQAGGSLRLSCAASGFTFISNAMGWYRQAPGKERELVAAISSSGGRTYYADSVKGRFTISRDNAKNTVYLQMNRLKPEDTAVYYCNADRSLLYSRKIEYDYWGQGTQVTVSS” here?
Answer: low polyreactivity

Question: With “QVQLVESGGGLVQAGGSLRLSCAASGFTFASYVMGWYRQAPGKERELVAAISYSGGYTYYADSVKGRFTISRDNAKNTVYLQMNSLKPEDTAVYYCNARYLQGYSGRYGYWGQGTQVTVSS” as the sequence, how does the “polyreactivity (PSR sort gate)” value read?
Answer: high polyreactivity

Question: Which “polyreactivity (PSR sort gate)” value does the source give for “QVQLVESGGGLVQAGGSLRLSCAASGSTFEANAKGWYRQAPGKERELVAVITWTGGSTYYADSVKGRFTISRDYAKNTVYLQMNSLKPEDTAVYYCAAKFHRFAWYSHYDYWGQGTQVTVSS” here?
Answer: low polyreactivity
